Experiments:
A3A(E72A) [1] = molecular target: T1, A3A(E72A) (Homo sapiens, UniProt P31941 1-199, E72A); assay: fluorescence anisotropy; pH 6.0; 50 mM MES pH 6.0, 100 mM NaCl, 0.5 mM TCEP, room temperature overnight, 10 nM TAMRA-oligo; competition with 300 nM A3A(E72A); pH series: acetate 4.0-5.0, MES 5.5-6.5, HEPES 7.0-8.0, Tris 8.5-9.0; conditions: protein: recombinant; tags: His6-SUMO removed by Ulp1 (untagged); label: 5' TAMRA; hairpin
A3A(E72A) [2] = molecular target: T1, A3A(E72A); assay: fluorescence anisotropy; pH 5.5; 50 mM MES pH 6.0, 100 mM NaCl, 0.5 mM TCEP, room temperature overnight, 10 nM TAMRA-oligo; competition with 300 nM A3A(E72A); pH series: acetate 4.0-5.0, MES 5.5-6.5, HEPES 7.0-8.0, Tris 8.5-9.0; conditions: protein: recombinant; tags: His6-SUMO removed by Ulp1 (untagged); label: 5' TAMRA

T1 sequence (P31941 whole entry E72A): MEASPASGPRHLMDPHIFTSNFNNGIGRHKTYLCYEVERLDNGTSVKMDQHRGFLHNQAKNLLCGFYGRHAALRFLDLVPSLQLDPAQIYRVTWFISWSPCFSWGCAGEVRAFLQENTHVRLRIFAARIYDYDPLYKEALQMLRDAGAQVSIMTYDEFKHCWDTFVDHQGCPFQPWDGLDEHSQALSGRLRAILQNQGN

Row | Binder | Kd (A3A(E72A) [1]) [nM] | Kd (A3A(E72A) [2]) [nM]
1 | GCCATCAAAAGATGGG (structured_DNA) [Hairpin-AAA] | 676 ± 399 | –
2 | AAAATTCAAAAAA (ssDNA) [Poly A-TTC (pH series, 4A-TTC-6A)] | – | 68 ± 3
